Paper PMC9872604, “Targeting Multidrug-Recalcitrant Pseudomonas aeruginosa Biofilms: Combined-Enzyme Treatment Enhances Antibiotic Efficacy” (Antimicrobial Agents and Chemotherapy, 2023)

Legend:
[1] = substrate: CCCCCCCCCC(=O)CC(=O)N[C@H]1CCOC1=O; experiment: purified protein; format: biochemical, Ochrobactrum sp. T63; conditions: 50 mM sodium phosphate pH 6.8, 37 °C, 10 min, 5% methanol substrate
[2] = substrate: CCCC(=O)N[C@H]1CCOC1=O; experiment: purified protein; format: biochemical, Ochrobactrum sp. T63; conditions: 50 mM sodium phosphate pH 6.8, 37 °C, 10 min, 5% methanol substrate

B1: AidH (Ochrobactrum sp. T63) (protein)
chain: MTINYHELETSHGRIAVRESEGEGAPLLMIHGNSSSGAIFAPQLEGEIGKKWRVIAPDLPGHGKSTDAIDPDRSYSMEGYADAMTEVMQQLGIADAVVFGWSLGGHIGIEMIARYPEMRGLMITGTPPVAREEVGQGFKSGPDMALAGQEIFSERDVESYARSTCGEPFEASLLDIVARTDGRARRIMFEKFGSGTGGNQRDIVAEAQLPIAVVNGRDEPFVELDFVSKVKFGNLWEGKTHVIDNAGHAPFREAPAEFDAYLARFIRDCTQ
notes: full aidH gene in pET28a(+) (BamHI/HindIII), His-tagged, expressed in E. coli BL21(DE3), Ni-NTA and size exclusion purified
For B1, the Km [1] was 240 ± 30 µM, the kcat [1] was 29.4 ± 1.7 s⁻¹ and the Km [2] was 250 ± 30 µM. The kcat [2] was 39.8 ± 1.3 s⁻¹.
